Reference: the supplement of paper PMC9732359
± gives the uncertainty stated by the source.

Assay: protein stability index of a GFP-peptide fusion (yeast GPS) (PSI 1-4); higher = more stable; sorted into four equal gates, so the index is relative within each strain
Method in brief: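 Tiled yeast protein peptides of 17 residues were each joined downstream of GFP, on plasmids that also express Cherry. The pooled library was maintained in yeast, and mid-log cultures in leucine-free medium were sorted into four equal gates on the GFP/Cherry ratio. Plasmids from every gate were amplified by PCR and sequenced on Illumina, with barcodes linking reads to strains. The protein stability index of a peptide is its gate-number-weighted read frequency summed over the gates.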

Row | Sequence | protein stability index (doa10∆) | protein stability index (pdr5∆) | protein stability index (san1∆) | protein stability index (ubr1∆)
1 | TTPEKPEETPLEELAET [FAS2] | 3.28 ± 0.076 | 3.09 ± 0.074 | 3.28 ± 0.051 | 3.5 ± 0.051
2 | ALMRCSFEETVEILFEA [RPO21] | 3.12 ± 0.082 | 2.6 ± 0.079 | 3.06 ± 0.062 | 2.85 ± 0.069
3 | YDALLSINVHSNNITSG [RET1] | 2.52 ± 0.061 | 2.66 ± 0.057 | 2.59 ± 0.059 | 2.76 ± 0.04
4 | ADDADIEMKDVSSKPSK [MED1] | 3.17 ± 0.1 | 3.29 ± 0.11 | 2.95 ± 0.065 | 3.26 ± 0.066
5 | NSSNLSYNNTGISDDEN [RRP4] | 2.53 ± 0.07 | 2.87 ± 0.064 | 2.87 ± 0.049 | 2.79 ± 0.06
6 | RALRIETGNFSWASEGI [RPS8A] | 3.15 ± 0.036 | 3.15 ± 0.037 | 3.11 ± 0.027 | 3.052 ± 0.026
7 | PSIVFIDEIDAIGTKRY [RPT2] | – | 2.28 ± 0.14 | 2.14 ± 0.17 | 2.92 ± 0.19
8 | WSSEFAKWAPTLRTISF [SNF2] | 2.36 ± 0.057 | 2.41 ± 0.043 | 2.78 ± 0.063 | 2.47 ± 0.056
9 | NKQSVSNLSPDLKFKRH [DSN1] | 2.95 ± 0.11 | 2.61 ± 0.22 | 3.32 ± 0.089 | 2.34 ± 0.2
10 | RIYDREPTVRIQAVFCL [YCG1] | 2.47 ± 0.11 | 1.72 ± 0.15 | 1.61 ± 0.21 | 2.39 ± 0.1
11 | PDPRSTVIPEDEEIIQL [RPO21] | 2.65 ± 0.081 | 2.75 ± 0.087 | 2.79 ± 0.077 | 2.66 ± 0.063
12 | APLKALVQEQVREFQRR [BRR2] | 1.26 ± 0.1 | 1.24 ± 0.092 | 1.3 ± 0.13 | 1.26 ± 0.13
13 | RLGDLGVIDDSFDVAIS [SMC4] | 2.85 ± 0.14 | 2 ± 0.14 | 1.23 ± 0.25 | 1.98 ± 0.067
14 | ANVELTPSNIRSLCEVL [RPC34] | 1.32 ± 0.053 | 1.68 ± 0.064 | 1.69 ± 0.078 | 2.02 ± 0.07
15 | AGASPMVNTQQPIVTGT [PRE4] | 2.67 ± 0.17 | 2.67 ± 0.29 | – | –
16 | DFITGSYLISHKDSFYD [RPO31] | 2.02 ± 0.066 | 1.94 ± 0.049 | 2.13 ± 0.064 | 1.83 ± 0.045
17 | QRDLGLYVVGLFDTYHA [RRP6] | 2.38 ± 0.046 | 2.53 ± 0.043 | 1.91 ± 0.062 | 2.57 ± 0.033
18 | SKIFRFQNSKSASLFKQ [RPL24A] | 2.63 ± 0.097 | 3.04 ± 0.085 | 2.54 ± 0.096 | 2.1 ± 0.073
19 | NNSNSNNNDNNNSNTVA [SWI1] | 2.95 ± 0.058 | 3.14 ± 0.051 | 3.04 ± 0.042 | 3.13 ± 0.045
20 | KQRKNPRRIAWTVLFRK [RPL24A] | 3.03 ± 0.14 | 2.27 ± 0.1 | 1.41 ± 0.25 | 2.27 ± 0.048
21 | VKARHGGCDYIFSLLTG [CYT1] | 2.88 ± 0.1 | 3.02 ± 0.12 | 2.61 ± 0.086 | 2.72 ± 0.053
22 | IAHENEQKWLIYDKKDH [SRB8] | 2.88 ± 0.13 | 2.83 ± 0.093 | 2.77 ± 0.17 | 2.8 ± 0.071
23 | YPNEVLKFNHGNYSHLM [REC8] | 2.7 ± 0.13 | 2.65 ± 0.059 | 2.76 ± 0.059 | 2.88 ± 0.061
24 | FSHSLTTILSFSSPAAL [NUT1] | 1.46 ± 0.031 | 1.38 ± 0.029 | 1.35 ± 0.063 | 1.32 ± 0.026
25 | TRIAGVVYHPSNNELVR [RPS8A] | 2.666 ± 0.019 | 2.47 ± 0.018 | 2.56 ± 0.02 | 2.652 ± 0.013
26 | TGANFDDVERGVSRQIA [REC8] | 3.49 ± 0.11 | 3.63 ± 0.17 | 3.32 ± 0.24 | 3.58 ± 0.12

Row | Sequence | protein stability index (doa10∆) | protein stability index (pdr5∆) | protein stability index (san1∆) | protein stability index (ubr1∆)
27 | SYLETLTALGKEKEKER [MED2] | 2.57 ± 0.16 | 1.93 ± 0.12 | 2.34 ± 0.17 | 2.92 ± 0.057
28 | AIIYQRGKDGKLHVAAK [YGL100W/SEH1] | 3.25 ± 0.12 | 3.31 ± 0.1 | 2.9 ± 0.13 | 3.02 ± 0.18
29 | QKIMILQRTILNRIINH [RGR1] | 1.81 ± 0.068 | 1.83 ± 0.067 | 2 ± 0.076 | 1.7 ± 0.055
30 | INKIVEILTNQQRGITY [YGR119C/NUP57] | 1.64 ± 0.073 | 1.99 ± 0.12 | 2.12 ± 0.13 | 2.09 ± 0.065
31 | LSTLPAGKSLVSKSEPK [QCR2] | 2.95 ± 0.17 | 3.27 ± 0.1 | 2.68 ± 0.11 | 3.44 ± 0.14
32 | GRRISENGQRDLDRIAA [RPS19A] | 3.76 ± 0.25 | 3.42 ± 0.14 | 3.4 ± 0.064 | 3.45 ± 0.17
33 | LDKDSSQSSAAAGASVD [RPN6] | 3.47 ± 0.11 | 3.42 ± 0.078 | 3.02 ± 0.075 | 3.2 ± 0.086
34 | RIQLMNDFTTKLINIKK [MED1] | 2.89 ± 0.081 | 2.81 ± 0.099 | 2.84 ± 0.11 | 2.97 ± 0.086
35 | SYQKAWDLLQSGSQNIS [RPN12] | 1.18 ± 0.096 | 1.11 ± 0.084 | 1.2 ± 0.13 | 1.08 ± 0.14
36 | GLEVGPVVQVGIFIKIL [IRR1] | 2.38 ± 0.068 | 2.25 ± 0.056 | 2.11 ± 0.15 | 2.47 ± 0.059
37 | ILQQRSKINSTELLDYA [MED4] | 2.84 ± 0.086 | 2.61 ± 0.081 | 2.44 ± 0.054 | 2.97 ± 0.11
38 | MVEWLESRSFSPIPFPP [PRP8] | 2.52 ± 0.13 | 2.83 ± 0.17 | 3.17 ± 0.13 | 2.9 ± 0.11
39 | EIKKMIITNINAIFLSS [YCG1] | 2.49 ± 0.11 | 1.94 ± 0.088 | 1.8 ± 0.081 | 1.81 ± 0.12
40 | EMKIGSIESKLEEHKNH [SMC1] | 3.03 ± 0.15 | 3.22 ± 0.16 | 2.96 ± 0.18 | 3.01 ± 0.099
41 | QQPNPLQDLISVYGLDD [ROX3] | 1.95 ± 0.073 | 1.76 ± 0.061 | 2.02 ± 0.15 | 1.97 ± 0.084
42 | DFHFSTDRITRLFIKPG [BRN1] | 2.33 ± 0.058 | 2.6 ± 0.046 | 2.16 ± 0.089 | 2.67 ± 0.048
43 | KWQTLIEANVTVKTSDD [RPS1A] | 1.42 ± 0.05 | 1.62 ± 0.044 | 1.61 ± 0.078 | 1.67 ± 0.037
44 | FDYMNRYWVQKERSDGK [CDC53] | 2.26 ± 0.16 | – | 2.39 ± 0.21 | 2.57 ± 0.18
45 | TSFGQPQSAPNQMGMGT [YOR098C/NUP1] | 2.81 ± 0.094 | 2.83 ± 0.18 | 2.9 ± 0.15 | 2.41 ± 0.17
46 | YQRPMQVQGQQQAQSFV [SSN3] | 2.42 ± 0.044 | 2.71 ± 0.045 | 2.5 ± 0.05 | 2.63 ± 0.035
47 | QIISGNRVPDGFQDRSL [RPO31] | 3.17 ± 0.13 | 3.13 ± 0.13 | 3.06 ± 0.08 | 3.38 ± 0.2
48 | DKFPYKKLELPKYIDEL [SWP82] | 2.73 ± 0.074 | 2 ± 0.058 | 2.56 ± 0.064 | 2.83 ± 0.08
49 | SEEPTDFGFDLDIEKEA [MCD1] | 2.77 ± 0.25 | – | – | 3.24 ± 0.14
50 | LISRMIFIATQLEKKIR [BRR2] | 1.75 ± 0.075 | 1.9 ± 0.059 | 1.28 ± 0.12 | 2.03 ± 0.054
51 | ETQFKLSRPYKALKTNI [CDC53] | 2.19 ± 0.045 | 2.39 ± 0.051 | 2.23 ± 0.05 | 2.45 ± 0.052
